Target: T1, LexA (Bacillus subtilis 3610) (UniProt P31080)
T1 sequence: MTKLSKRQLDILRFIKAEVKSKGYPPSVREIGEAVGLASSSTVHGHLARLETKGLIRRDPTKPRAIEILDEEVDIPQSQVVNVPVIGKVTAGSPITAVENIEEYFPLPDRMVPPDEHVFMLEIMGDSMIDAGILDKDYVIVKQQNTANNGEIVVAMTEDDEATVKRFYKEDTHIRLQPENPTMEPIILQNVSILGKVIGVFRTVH
Assay: EMSA
Details: EMSA: 4 nM 32P probe, LexA 1-500 nM, binding buffer as printed (likely 5x stock): 100 mM HEPES pH 7.5, 100 mM Tris-HCl, 50% glycerol, 500 mM NaCl, 10 mM EDTA …

Sequence	binding signal (fold lower affinity)	binding
AGGAGGGATCCTCTATATTGCTATTTCATGTTGGTGGATACAAGTAAAACCAAAATTTCCATATCCATCAGACTTAATGATTTTATCTAGAGAAATAGAAACGTAAACGAAAAAAATATTATTTTTTTAACTTTTTGTTTGAGCCTTTTTACAGATTGGAAGTCTTCAGAATAGGTCTTTTTTGGTAGTACTTACAATAATTATTATATTACATAAGTACTAGATCGTACACGAATTCCTCCT (double strand) [PsigNDN]	500	
CCTGACGATCACTCATTCTATTTTTTCCTCCTTTATGTTACCACTACATATACTATACCCTGTTTGAAGGGATTTGCCAAGAAAAAAGCGAACGCATATTCGGATTTTTTCTTGGCGTGATTCCTATCAAAATATCATAATGTATCAGAGAAATCATGTTTTCTTAGGAGGATAATGTGCTG (double strand) [PrecA]		binds

Reference: PMC6751061
